System: MS2 coat protein
Test: apparent KD of MS2 coat protein; designed switch direction (-1 OFF switch, 1 ON switch): -1; higher = weaker reporter binding
Method in brief: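 RNA switches sharing common flanks were transcribed by stalled E. coli RNA polymerase on Illumina chips. A doubling series of SNAP-549-labelled MS2 coat protein, from 0.7 or 1.5 nM to 3 µM, was applied in Tris-HCl pH 7.5 buffer with KCl, MgCl2, BSA, DTT, tRNA and Tween-20. Each step lasted 0.8–1.5 h at the bottom of the series and 10–20 min at the top. Normalised cluster fluorescence was curve-fitted, giving apparent KD as the per-design median over clusters.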

[1] = Eterna round: R95, input ligand: FMN 200 uM
[2] = Eterna round: R95, input ligand: microRNA oligo, concentration not stated
[3] = Eterna round: R95, input ligand: none
[4] = input ligand: microRNA oligo, concentration not stated

Sequence	apparent KD of MS2 coat protein (input ligand: FMN 200 uM)	apparent KD of MS2 coat protein (input ligand: none)	apparent KD of MS2 coat protein [1]	apparent KD of MS2 coat protein [2]	apparent KD of MS2 coat protein [3]	apparent KD of MS2 coat protein [4]
ACUUAUAGAGGAUAUACAGUUAAUUACAUGAGGAUCACCCAUGUUCUUCAAUGUAUAUAAGUAGAAGGCUAAGGAA [Ex5 Malc#5 mod] (Eterna round: R97, puzzle: Exclusion 5)	64.3 nM	16.7 nM	–	–	–	–
AUAUAGAUAGUCAGGAUAUGCUAGUGAUAACAGUAGUAGAAGGGACAUGAGGAUCACCCAUGUAGAUAGUGCAC [Brourd's EX4 #4] (Eterna round: R97, puzzle: Brourd's mod of Exclusion 4)	32.6 nM	22.5 nM	–	–	–	–
AAGAAACAUGAGGAUCACCCAUGUGAGGAUAUGACGAAGAAAAGAAAAGAAAGAAGAGUCAGAAGGCACAAAGG [salish99-ex1_r3_067] (puzzle: Exclusion 1)	–	–	132 nM	100 nM	109 nM	–
CCCGACAUGUCUUCGUAAUACAUGAGGAUCACCCAUGUCACGUAGGAUAUCCAGUCGGUAAGAGAGGAGAAGGAUGUAAGAAAU [Vedite] (Eterna round: R96, puzzle: Exclusion NG 3)	15.5 nM	15.5 nM	–	–	–	9.14 nM
CUAAUACAUCAGGAUAUCUAUGAUUAUAGCCAUAGAGAAGGGAUGACAUGAGGAUCACCCAUGUCAAAGGGUGA [eternacac ex6r4 sub21] (Eterna round: R97, puzzle: Exclusion 6)	426 nM	879 nM	–	–	–	–
UUAAAUCAUGUAGGAUAUGCGUGGCGAAGCUAUGCAGAAGGACAUGAGGAUCACCCAUGUGCUGCGGUCUGCGUACAGAUCGCU [JL ENG1 1.03] (Eterna round: R96, puzzle: Exclusion NG 1)	98.7 nM	142 nM	–	–	–	76.4 nM
UUUGCAAGCUAAAGAUCCCACAUGAGGAUCACCCAUGUUGCUGCCGUGAGGUAGCUUUUAACUUUUGCUCGUCUUAU [JL TOV1 3.44] (Eterna round: R97, puzzle: Sensor, turn-off variant 1)	183 nM	217 nM	–	–	–	–
UCUCGACAUGAGGAUCACCCAUGUCAGGAUAUUGUAUUGGAGGUUUUUUACCUUAUGGCAAGAAGGGAUGUGUG [LRO-Excl1-24] (puzzle: Exclusion 1)	–	–	–	18.3 nM	–	–
AAAUUAAGUGUGAGGAUAUGCUGGUCCUUGGAUCAGCAGAAGGCACAUGAGGAUCACCCAUGUAAUAUAUUUAA [Mat - Exclusion 4 - JL Mod - D49] (puzzle: Brourd's mod of Exclusion 4)	–	–	439 nM	74.2 nM	144 nM	–
AAUAACAGAGGAUAUACUAUAAUAUGAAUAAAAUAAAUAAAACAUGAGGAUCACCCAUGUAGAAGGCUGAAUAA [JMF's Not so obvious solution 10] (puzzle: Exclusion 2)	–	–	17.1 nM	20 nM	21.1 nM	–
GCGGGCCCGGGAGGAUAUACAUGAGGAUCACCCAUGUGGGCCCGGGCCCGCGGGCCCGGGCCCGUGUAGAAGGCCCGGGCCCGC [-64.9, -63.3 kcal, A 14%] (Eterna round: R96, puzzle: Exclusion NG 2)	28 nM	14.2 nM	–	–	–	10.1 nM
UAAUACAAGCAAAGAUCUUACAUGAGGAUCACCCAUGUGCUCGUCUUAUAAAGUACUAUCACGAAAGUGAUAGUACA [Mat - Sensor v3 - turn-off var 1 - Eli Mod - D93] (puzzle: Sensor v3, turn-off variant 1)	–	–	20.4 nM	181 nM	31.9 nM	–
AGUGUCUUAGGAUAUACAUGAGGAUCACCCAUGUUAACAUUCCUUCGCGGUAUCGCAUGUAGAAGGAGGAUAUG [Eternabot (L1) Solution 68] (Eterna round: R97, puzzle: Exclusion 3)	33.1 nM	26.8 nM	–	–	–	–
CAGUACUGAGGAUAUACAUGAGGAUCACCCAUGUGUUCCGGCUAGGAAACUAGCAAAAGUAGAAGGCAGUACUG [salish99_ex3_r3_079] (puzzle: Exclusion 3)	–	–	368 nM	30.8 nM	28.5 nM	–
GAAAAGGUAGGAUAUACGAAAAAAAAGGCUAGAAAAAAAACACAUGAGGAUCACCCAUGUAGAAGGACCAAAAG [salish99_ex2_r3_068] (puzzle: Exclusion 2)	–	–	28.7 nM	28.8 nM	24 nM	–
GGUGGGCUAGGAUAUGCUUUGGGCGGGCAUUCCUUCGAUAAACUUGAGGAUCACCCAAGUAGAAGGAGCUUGCC [salish99_ex2_r4_024] (Eterna round: R97, puzzle: Exclusion 2)	16.2 nM	12.3 nM	–	–	–	–
GGGCCUCAUGUGAGGAUAUUGGAUGAGGUGCGAGACGAGAAGGCACAUGAGGAUCACCCAUGUAACUAACCAAA [Bimaen] (Eterna round: R97, puzzle: Brourd's mod of Exclusion 4)	34.8 nM	85 nM	–	–	–	–

Sequence	apparent KD of MS2 coat protein (input ligand: FMN 200 uM)	apparent KD of MS2 coat protein (input ligand: none)	apparent KD of MS2 coat protein [1]	apparent KD of MS2 coat protein [2]	apparent KD of MS2 coat protein [3]	apparent KD of MS2 coat protein [4]
GGCUAGUGAGGAUAUACGUGCAGUCCUCAGUCGCCAGUCGGACAUGAGGAUCACCCAUGUAGAAGGUAUCGGCA [Beesraat] (puzzle: Exclusion 2)	–	–	–	30.2 nM	–	–
GCAUCCAAAGUGAGGAUAUACCUCUGGAUACAGAGGUAGAAGGCACAUGAGGAUCACCCAUGUUUCUAGGAUGC [Fiskers BMX 4 - 37] (puzzle: Brourd's mod of Exclusion 4)	–	–	21.2 nM	13.3 nM	13.9 nM	–
ACUAGAUGAGGAUAUGCACAUUUUAGUGUUCCUCUAGAUUAACAUGAGGAUCACCCAUGUAGAAGGCGUCAUUU [Exclusion 2 - 13] (puzzle: Exclusion 2)	–	–	–	69.7 nM	–	–
GGCGCACAUGAGGAUCACCCAUGUGAGGAUAUGUGGCGAUCGUCGAUAGACGAUAGCCACAGAAGGCACAUGCC [Mat - Exclusion 1 - Eli Mod - D20] (Eterna round: R97, puzzle: Exclusion 1)	74 nM	33.3 nM	–	–	–	–
AUAUUAAGUGUGAGGAUAUGCUGGUCCUUGGAUCAGCAGAAGGCACAUGAGGAUCACCCAUGUAAUAUAUUUAU [Mat - Exclusion 4 - JL Mod - D47] (puzzle: Brourd's mod of Exclusion 4)	–	–	–	78.6 nM	–	–
CUUAGACAUGAGGAUCACCCAUGUGAGGAUAUGAUGCGGGAGACGAAAAGUUUCAGCAUCAGAAGGCACAUAUG [mod of disincluded 3 v.3 (my top score 87 - 34% A's)] (puzzle: Exclusion 1)	–	–	349 nM	175 nM	172 nM	–
CUUUUGUGAGGAUAUUAGUAGUAAAUAAAUAAAAUUAUUACUGAGAAGGCACAUGAGGAUCACCCAUGUUCCUC [salish99_ex4_r3_062] (Eterna round: R96, puzzle: Exclusion 4)	533 nM	36.6 nM	–	–	–	32.9 nM
GUCACAUGGAUGUAGGAUCACAUGAGGAUCACCCAUGUGACUAACAAGGUUUUUGCUCAUCUUAUGACUAUGUGAAU [A Brourd mod] (Eterna round: R97, puzzle: Sensor, turn-off variant 1)	91.7 nM	103 nM	–	–	–	–
CACCUGAAAGGAGGAUAUCUUACAUGAGGAUCACCCAUGUAAUAAAUGAGAAUUUCGAAUGUAAUAGAGAAGGCCUGAAAAGGC [Ostracism 85 - Jieux - Exclusion NG 2] (Eterna round: R96, puzzle: Exclusion NG 2)	30.6 nM	34.4 nM	–	–	–	25 nM
UUAAUACAUGUAGGAUAUGCGUGGCGAAGCUAUGCAGAAGGACAUGAGGAUCACCCAUGUUCUAGCGUCCGCGUACGGAUGCAA [JL Eng1 1.21 mod 9] (Eterna round: R96, puzzle: Exclusion NG 1)	16.4 nM	14.8 nM	–	–	–	12 nM
AUAAUUAGUUCAGGAUAUCAGCACGAUUAGUGCUGAGAAGGGAACAUGAGGAUCACCCAUGUGAUCAAUAUUAUAAUUUUAAUU [ENG1/12-B1] (Eterna round: R96, puzzle: Exclusion NG 1)	281 nM	1150 nM	–	–	–	540 nM
UAAUAAUAGCAAGGAUAUAGUUAUUAUAAUAUACUAGAAGGUGCACAUGAGGAUCACCCAUGUUUUAUAAUUUGUAAUUUAAAU [3rd something] (Eterna round: R96, puzzle: Exclusion NG 1)	–	–	–	–	–	20.9 nM
GCCCGGGCAGGAUAUACAAUGAAGUUGAGAAAUCGGCUUCGACAUGAGGAUCACCCAUGUAGAAGGGCCCGGGC [-36.9, -34.6 kcal, A 28% 3] (Eterna round: R97, puzzle: Exclusion 2)	17.6 nM	14.6 nM	–	–	–	–
CUCCGGCGUGUAGGAUAUGGUUCCGUUUAGGAUCCAGAAGGACAUGAGGAUCACCCAUGUACAUGUCGUCGGUCGUCACCGGGC [salish99_ExNG1_r04_212] (Eterna round: R96, puzzle: Exclusion NG 1)	110 nM	28.5 nM	–	–	–	24.5 nM
GAACCAUGAGGAUAUUCUGAUCCUAACAUGAGGAUCACCCAUGUGAGUACAAAAGUACUCGAAGAAGGCAUGGUUC [Omei Ex5 B2] (Eterna round: R97, puzzle: Exclusion 5)	819 nM	428 nM	–	–	–	–
AAAUCCGCUGAGGAUAUUAUGAGUGAGAGCUCAUGAGAAGGCGGUACAUGAGGAUCACCCAUGUCUAUGGGCAA [Ex-6 Malc#26] (puzzle: Exclusion 6)	–	–	–	329 nM	–	–
